Experiments:
[1] = molecular target: asialofetuin (ASF) (bovine (from fetal calf serum)) (UniProt P12763); experiment: ELISA; ASF (5 µg/mL, 200 µL/well) adsorbed on Maxisorp plates; IMAC-purified galectin 0-30 µM in PBS, 1 h; peroxidase-conjugated anti-His6 antibody, TMB; apparent KD, one-site saturation fit; binding efficiency = Bmax/KD
[2] = molecular target: laminin (from Engelbreth-Holm-Swarm sarcoma) (not stated (Engelbreth-Holm-Swarm sarcoma; detected with an anti-mouse-laminin antibody)); experiment: ELISA; laminin, fibronectin or collagen IV (5 µg/mL, 100 µL/well) adsorbed on Maxisorp plates; galectin 0-10 µM, 1 h; peroxidase-conjugated anti-His6 antibody, TMB; apparent KD, one-site saturation fit
[3] = molecular target: fibronectin (from human plasma) (human) (UniProt P02751); experiment: as above
[4] = molecular target: collagen IV (from human placenta) (human); experiment: as above
Sequence of collagen IV (from human placenta) (human) (P02462 173-1669, chain 1 of 2): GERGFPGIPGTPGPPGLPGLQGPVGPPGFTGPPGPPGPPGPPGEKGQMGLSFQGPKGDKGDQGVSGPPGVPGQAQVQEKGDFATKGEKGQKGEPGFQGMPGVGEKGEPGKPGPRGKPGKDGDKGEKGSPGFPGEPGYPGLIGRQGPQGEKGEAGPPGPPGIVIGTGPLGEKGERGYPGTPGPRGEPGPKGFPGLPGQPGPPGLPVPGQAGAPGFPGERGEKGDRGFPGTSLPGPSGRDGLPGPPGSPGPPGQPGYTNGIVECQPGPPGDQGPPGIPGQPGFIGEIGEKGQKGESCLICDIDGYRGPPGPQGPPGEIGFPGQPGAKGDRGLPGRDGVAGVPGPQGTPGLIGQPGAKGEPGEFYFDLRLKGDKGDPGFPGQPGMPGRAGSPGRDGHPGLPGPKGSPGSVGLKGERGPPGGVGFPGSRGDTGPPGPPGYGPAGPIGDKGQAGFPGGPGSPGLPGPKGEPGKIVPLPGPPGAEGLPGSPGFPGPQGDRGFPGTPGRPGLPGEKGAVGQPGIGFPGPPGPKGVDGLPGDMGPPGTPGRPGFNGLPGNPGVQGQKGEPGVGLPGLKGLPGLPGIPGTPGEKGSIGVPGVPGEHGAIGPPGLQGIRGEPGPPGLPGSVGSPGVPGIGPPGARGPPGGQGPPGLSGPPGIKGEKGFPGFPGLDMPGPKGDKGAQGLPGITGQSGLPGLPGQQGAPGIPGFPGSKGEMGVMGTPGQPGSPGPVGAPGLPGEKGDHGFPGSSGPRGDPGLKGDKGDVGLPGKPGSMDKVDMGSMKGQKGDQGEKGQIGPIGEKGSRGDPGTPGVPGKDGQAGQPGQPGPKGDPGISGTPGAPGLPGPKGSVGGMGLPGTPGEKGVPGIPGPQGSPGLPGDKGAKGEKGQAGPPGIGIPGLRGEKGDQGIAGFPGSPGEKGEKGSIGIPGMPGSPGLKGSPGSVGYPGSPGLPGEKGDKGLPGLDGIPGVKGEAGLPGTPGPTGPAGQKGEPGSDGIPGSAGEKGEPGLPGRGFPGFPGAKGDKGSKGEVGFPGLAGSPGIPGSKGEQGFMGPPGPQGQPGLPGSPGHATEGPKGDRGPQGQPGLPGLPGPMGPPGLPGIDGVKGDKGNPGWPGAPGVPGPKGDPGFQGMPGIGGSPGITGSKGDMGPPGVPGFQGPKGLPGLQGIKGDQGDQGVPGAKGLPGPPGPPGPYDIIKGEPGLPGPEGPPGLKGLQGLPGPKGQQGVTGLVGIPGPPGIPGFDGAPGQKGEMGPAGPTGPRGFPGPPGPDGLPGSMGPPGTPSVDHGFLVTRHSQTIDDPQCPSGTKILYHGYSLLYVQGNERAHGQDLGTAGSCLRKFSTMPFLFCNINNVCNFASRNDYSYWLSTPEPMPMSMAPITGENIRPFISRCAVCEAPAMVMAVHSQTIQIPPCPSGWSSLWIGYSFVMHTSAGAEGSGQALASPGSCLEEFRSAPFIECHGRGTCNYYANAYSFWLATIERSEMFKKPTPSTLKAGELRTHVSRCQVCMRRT
Sequence of collagen IV (from human placenta) (human) (P08572 184-1712, chain 2 of 2, further chain): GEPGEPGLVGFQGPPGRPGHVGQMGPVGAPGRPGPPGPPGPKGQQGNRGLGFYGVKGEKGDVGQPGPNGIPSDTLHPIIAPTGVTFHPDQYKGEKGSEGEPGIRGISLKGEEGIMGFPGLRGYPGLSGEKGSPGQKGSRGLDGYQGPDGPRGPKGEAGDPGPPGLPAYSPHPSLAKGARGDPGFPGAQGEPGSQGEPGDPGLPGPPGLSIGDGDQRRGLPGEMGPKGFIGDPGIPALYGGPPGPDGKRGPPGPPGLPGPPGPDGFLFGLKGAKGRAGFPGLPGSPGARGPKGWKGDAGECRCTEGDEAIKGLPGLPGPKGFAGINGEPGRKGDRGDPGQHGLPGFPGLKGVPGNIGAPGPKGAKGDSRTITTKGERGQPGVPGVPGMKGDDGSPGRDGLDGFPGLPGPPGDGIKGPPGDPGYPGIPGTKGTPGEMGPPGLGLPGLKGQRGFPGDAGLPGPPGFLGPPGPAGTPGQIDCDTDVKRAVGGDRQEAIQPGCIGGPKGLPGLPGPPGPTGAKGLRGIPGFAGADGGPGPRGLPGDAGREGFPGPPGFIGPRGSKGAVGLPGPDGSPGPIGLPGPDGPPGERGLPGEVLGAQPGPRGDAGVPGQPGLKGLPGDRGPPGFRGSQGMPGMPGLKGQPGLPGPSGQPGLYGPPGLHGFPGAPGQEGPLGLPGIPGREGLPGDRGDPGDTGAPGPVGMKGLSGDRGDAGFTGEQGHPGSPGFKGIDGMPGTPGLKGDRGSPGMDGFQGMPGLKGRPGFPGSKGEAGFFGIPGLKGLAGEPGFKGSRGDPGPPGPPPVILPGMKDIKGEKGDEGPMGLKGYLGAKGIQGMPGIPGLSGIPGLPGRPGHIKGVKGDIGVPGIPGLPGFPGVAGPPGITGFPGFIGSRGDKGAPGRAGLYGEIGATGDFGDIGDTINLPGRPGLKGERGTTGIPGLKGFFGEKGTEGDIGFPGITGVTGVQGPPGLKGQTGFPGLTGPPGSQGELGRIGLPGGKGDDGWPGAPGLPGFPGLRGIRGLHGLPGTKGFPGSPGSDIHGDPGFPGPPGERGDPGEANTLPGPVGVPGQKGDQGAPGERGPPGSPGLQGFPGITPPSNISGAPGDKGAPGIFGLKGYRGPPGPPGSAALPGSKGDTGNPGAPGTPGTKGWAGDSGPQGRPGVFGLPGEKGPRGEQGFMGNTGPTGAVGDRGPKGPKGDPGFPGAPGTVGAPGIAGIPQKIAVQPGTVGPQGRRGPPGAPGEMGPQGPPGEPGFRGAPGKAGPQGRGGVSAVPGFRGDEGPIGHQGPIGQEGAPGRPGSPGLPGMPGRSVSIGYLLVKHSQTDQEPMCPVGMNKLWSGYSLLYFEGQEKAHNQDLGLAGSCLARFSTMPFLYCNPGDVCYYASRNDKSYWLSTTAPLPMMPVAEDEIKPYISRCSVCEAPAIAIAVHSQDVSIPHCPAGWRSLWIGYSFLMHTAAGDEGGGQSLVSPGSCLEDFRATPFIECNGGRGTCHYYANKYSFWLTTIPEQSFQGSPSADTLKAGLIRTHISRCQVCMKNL

[5] = molecular target: asialofetuin (ASF) (bovine (from fetal calf serum)) (UniProt P12763); experiment: affinity chromatography on glycoprotein-Sepharose column; ASF or fetuin coupled to CNBr-activated Sepharose 4 Fast Flow (1 mL column); 0.2 µmol of galectin IMAC eluate applied, 15 min incubation, PBS pH 7.5, washed with 10 column volumes, eluted with a 0-0.3 M lactose gradient; eluted amount by Bradford assay; repeated three times
[6] = molecular target: fetuin (bovine (from fetal calf serum)) (UniProt P12763); experiment: as above
Sequence of fetuin (bovine (from fetal calf serum)) (P12763 19-359): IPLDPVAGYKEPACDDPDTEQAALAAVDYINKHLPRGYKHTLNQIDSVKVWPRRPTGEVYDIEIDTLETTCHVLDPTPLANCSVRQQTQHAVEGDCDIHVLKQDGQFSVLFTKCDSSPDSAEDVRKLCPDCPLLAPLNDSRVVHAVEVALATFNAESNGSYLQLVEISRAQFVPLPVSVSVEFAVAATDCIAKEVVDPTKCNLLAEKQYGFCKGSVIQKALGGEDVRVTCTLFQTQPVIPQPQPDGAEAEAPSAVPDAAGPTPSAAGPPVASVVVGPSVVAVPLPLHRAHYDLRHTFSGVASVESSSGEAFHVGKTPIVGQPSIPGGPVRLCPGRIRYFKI

[7] = molecular target: HSYGal-3 (His6-SNAP-yellow fluorescent protein-Gal-3) (human) (UniProt P17931); experiment: ELISA; crosslinking assay: ASF adsorbed on Maxisorp plates, saturating galectin (50 µM Gal-1C2S, 25 µM Gal-3, 40 µM Gal-8N) bound for 1 h at room temperature, then laminin, fibronectin or collagen IV 0-50 µM for 1 h; detected with anti-ECM-protein antibodies and peroxidase-conjugated secondary antibodies; apparent KD, one-site saturation fit
[8] = molecular target: HGal-3 (His6-Gal-3) (human) (UniProt P17931); experiment: as above
[9] = molecular target: HSeGFPGal-8N (His6-SNAP-eGFP-Gal-8N) (human) (UniProt O00214); experiment: as above
Sequence of HSeGFPGal-8N (His6-SNAP-eGFP-Gal-8N) (human) (O00214 1-160): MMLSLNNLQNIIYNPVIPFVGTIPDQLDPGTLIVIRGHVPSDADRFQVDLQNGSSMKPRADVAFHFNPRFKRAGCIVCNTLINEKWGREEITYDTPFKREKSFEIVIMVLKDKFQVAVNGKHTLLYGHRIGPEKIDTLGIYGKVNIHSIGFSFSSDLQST

[10] = molecular target: HGal-8N (His6-Gal-8N, N-terminal domain of galectin-8) (human) (UniProt O00214); experiment: as above
Sequence of HGal-8N (His6-Gal-8N, N-terminal domain of galectin-8) (human) (O00214 1-160): as above

[11] = molecular target: HSDsRedMGal-1C2S (His6-SNAP-DsRedM-Gal-1C2S) (human) (UniProt P09382); experiment: as above
[12] = molecular target: HGal-1C2S (His6-Gal-1 C2S) (human) (UniProt P09382); experiment: as above

Sequence of asialofetuin (ASF) (bovine (from fetal calf serum)) (P12763 19-359): as the sequence (P12763 19-359) above
Sequence of HGal-8N (His6-Gal-8N, N-terminal domain of galectin-8) (O00214 1-160): as the sequence (O00214 1-160) above
Sequence of HSeGFPGal-8N (His6-SNAP-eGFP-Gal-8N) (O00214 1-160): as above

| Substance | Kd [1] | apparent binding efficiency (Bmax/KD) [1] | Kd [2] | Kd [3] | other results |
| --- | --- | --- | --- | --- | --- |
| HDsRedMGal-1C2S (His6-DsRedM-Gal-1C2S, without SNAP-tag) (from UniProt P09382 1-135) (natural protein) | 8800 nM | 0.1 µM⁻¹ |  |  |  |
| HGal-1C2S (His6-Gal-1 C2S) (from UniProt P09382 1-135) (natural protein) | 500 nM | 1.6 µM⁻¹ | 420 nM | 1970 nM | Kd [4]: 1340 nM; percent of applied galectin bound and eluted [5]: 70%; percent of applied galectin bound and eluted [6]: 30% |
| HGal-3 (His6-Gal-3) (from UniProt P17931 1-250) (natural protein) |  |  | 130 nM | 430 nM |  |
| HGal-8C (His6-Gal-8C, C-terminal domain of galectin-8) (from UniProt O00214 182-317) (domain or fragment) |  |  |  |  | percent of applied galectin bound and eluted [5]: 3% |
| HGal-8N (His6-Gal-8N, N-terminal domain of galectin-8) (from UniProt O00214 1-160) (domain or fragment) |  |  | 180 nM | 520 nM |  |
| HSDsRedMGal-1C2S (His6-SNAP-DsRedM-Gal-1C2S) (from UniProt P09382 1-135) (natural protein) | 600 nM | 1.4 µM⁻¹ | 110 nM | 110 nM | Kd [4]: 140 nM; percent of applied galectin bound and eluted [5]: 4% |
| HSGal-1C2S (His6-SNAP-Gal-1C2S, without fluorescent protein) (from UniProt P09382 1-135) (natural protein) | 800 nM | 1.1 µM⁻¹ |  |  |  |
| HSYGal-3 (His6-SNAP-yellow fluorescent protein-Gal-3) (from UniProt P17931 1-250) (natural protein) |  |  | 70 nM | 110 nM |  |
| HSeGFPGal-8N (His6-SNAP-eGFP-Gal-8N) (from UniProt O00214 1-160) (domain or fragment) |  |  | 40 nM | 60 nM |  |
| fibronectin (from human plasma) (from UniProt P02751 32-2477) (natural protein) |  |  |  |  | Kd [7]: 10000 nM; Kd [8]: 5100 nM |
| laminin (from Engelbreth-Holm-Swarm sarcoma) (complex) |  |  |  |  | Kd [9]: 270 nM; Kd [7]: 450 nM; Kd [10]: 69500 nM; Kd [11]: 370 nM; Kd [12]: 380 nM; Kd [8]: 270 nM |
